The source of these data is patent publication US20230416330A1, “Optimized GIP Peptide Analogues” (Antag Therapeutics ApS, priority 2019, published 2023).

In general, Kb refers to the affinity of an antagonist, worked out from how it opposes an agonist. Read a high Kb as a less potent antagonist.

Starred links: 1 amine or outer side, 2 acyl side, 3 side chain; linkers in the order of their positions; H or OH if unused. Residues, ends and D or L forms follow the SMILES beside them. No end group written: not given here. *: point of attachment. C16 diacid = O=C(O)CCCCCCCCCCCCCCC(=O)*; Glutaryl = O=C(CCCC(=O)[*:2])[*:1]

In data set [1] the target is T1, human GIP receptor (Homo sapiens, UniProt P48546).
T1 construct: host or cells: HEK-293 cells, transient transfection (Lipofectamine 2000), cDNA in pCMV-Script vector
T1 sequence (P48546 22-466): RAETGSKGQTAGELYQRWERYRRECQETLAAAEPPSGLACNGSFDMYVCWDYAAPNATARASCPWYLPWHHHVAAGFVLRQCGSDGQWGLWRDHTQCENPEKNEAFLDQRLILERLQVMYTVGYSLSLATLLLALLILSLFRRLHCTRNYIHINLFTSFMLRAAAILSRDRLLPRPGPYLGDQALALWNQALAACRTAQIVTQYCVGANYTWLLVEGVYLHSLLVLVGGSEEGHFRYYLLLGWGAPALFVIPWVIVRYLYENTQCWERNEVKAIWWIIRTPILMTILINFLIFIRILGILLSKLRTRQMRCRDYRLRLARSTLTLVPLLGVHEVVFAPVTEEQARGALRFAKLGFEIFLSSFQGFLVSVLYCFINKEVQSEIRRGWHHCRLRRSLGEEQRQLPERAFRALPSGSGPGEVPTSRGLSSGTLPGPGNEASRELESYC
In words: cAMP assay Alternative 3 (Schild analysis), antagonist potency pKb. Format: cell-based. The protocol:
Antagonist potency was also determined by Schild analysis. GIP1-42 EC50 was measured in the absence of antagonist and EC50′ was measured in the presence of increasing concentrations of antagonist. These values were used to calculate a dose ratio (DR=EC50′/EC50) for each antagonist concentration, and log(DR-1) was plotted against log(antagonist concentration).
The in vitro functional assessment of compounds towards human GIP receptor was determined in HEK-293 cells transiently expressing the receptor. On the day of the assay, cells were resuspended in HBSS buffer (Gibco, 14025-50) supplemented with […] (Gibco, 15630-106), 0.1% Pluronic F-68 (Gibco, 24040-032) and 0.1% casein (Sigma, C4765), and plated in 384-well plates at a density of 3500 cells/well. […] The intracellular cAMP was quantitatively determined using the CisBio cAMP Dynamic 2 HTRF Assay Kit. […]
The cAMP-d2 conjugate and the antibody anti-cAMP-Cryptate, both diluted in lysis buffer provided in the kit, were added to the cells according to the manufacturer's protocol. The resulting competitive assay was incubated for 60 minutes at room temperature, and the signal was detected by using a PerkinElmer Envision® instrument with excitation at 320 nm and emission at 665 nm and 620 nm. […]
(cAMP levels reflect the balance of adenylyl cyclase and phosphodiesterase activity.)

The nature of data set [2]: Physical stability: fibril formation in Thioflavin T (ThT) assay with agitation. Format: physicochemical. The conditions noted are these: TFA, 25° C., agitation. A digest of the protocol:
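Peptides at 1, 5, 7.5 or 15 mg/ml in 50 mM sodium phosphate pH 7.4 or in water adjusted to pH 7.4 with NaOH, filtered 0.22 μm, with ThT added. Wells held a 3 mm silica bead under 300 rpm orbital agitation at 25° C. Emission at 486 nm tracked continuously; lag time = 10% of transition above baseline.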

A short description of data set [3]: Solubility by visual inspection of peptide solutions. The conditions noted are these: TFA. Format: physicochemical. A digest of the protocol: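 Peptides dissolved at 1, 5, 7.5 or 15 mg/ml in 50 mM sodium phosphate pH 7.4 or water adjusted to pH 7.4 with NaOH, with gentle mixing. Immediate solubility judged visually as a clear, colorless solution.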
The target of data set [4] is T2, human GIP receptor (human, UniProt P48546 22-466).
T2 sequence (looked up): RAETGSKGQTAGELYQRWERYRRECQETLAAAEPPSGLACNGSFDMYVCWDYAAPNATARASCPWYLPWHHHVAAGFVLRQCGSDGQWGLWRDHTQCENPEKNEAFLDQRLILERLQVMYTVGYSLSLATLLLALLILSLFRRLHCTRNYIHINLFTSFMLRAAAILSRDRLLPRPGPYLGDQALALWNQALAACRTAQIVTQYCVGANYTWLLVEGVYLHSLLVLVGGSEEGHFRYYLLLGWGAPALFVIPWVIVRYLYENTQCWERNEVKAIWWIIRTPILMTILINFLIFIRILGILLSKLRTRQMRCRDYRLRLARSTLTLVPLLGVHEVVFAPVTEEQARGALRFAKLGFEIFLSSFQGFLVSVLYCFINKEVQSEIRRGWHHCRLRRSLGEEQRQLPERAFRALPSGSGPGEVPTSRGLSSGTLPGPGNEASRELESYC
As to the kind of experiment: cell-based or functional assay.

Data set [5] addresses T2, human GIP receptor. As to the kind of experiment: cell-based or functional assay. The source holds these as a separate data set.

With `CC[C@H](C)[C@H](NC(=O)[C@H](CO)NC(=O)[C@H](Cc1ccc(O)cc1)NC(=O)[C@H](CC(=O)O)NC(=O)[C@H](CO)NC(=O)[C@@H](NC(=O)[C@H](Cc1ccccc1)NC(=O)[C@@H](NC(=O)CNC(=O)CCCC(=O)O)[C@@H](C)O)[C@@H](C)CC)C(=O)N[C@@H](C)C(=O)N[C@@H](CCSC)C(=O)N[C@@H](CC(=O)O)C(=O)N[C@@H](CCCCN)C(=O)N[C@H](C(=O)N[C@@H](CCCCNC(=O)CCCCCCCCCCCCCCC(=O)O)C(=O)N[C@@H](CCC(N)=O)C(=O)N[C@@H](CCC(N)=O)C(=O)N[C@@H](CC(=O)O)C(=O)N[C@@H](Cc1ccccc1)C(=O)N[C@H](C(=O)N[C@@H](CCC(=O)O)C(=O)N[C@@H](Cc1c[nH]c2ccccc12)C(=O)N[C@@H](CC(C)C)C(=O)N[C@@H](CC(C)C)C(=O)N[C@@H](C)C(=O)N[C@@H](CCC(N)=O)C(=O)N[C@@H](CCCCN)C(=O)N1CCC[C@H]1C(=O)N[C@@H](CO)C(=O)N[C@@H](CO)C(=O)NCC(=O)N[C@@H](C)C(=O)N1CCC[C@H]1C(=O)N1CCC[C@H]1C(=O)N1CCC[C@H]1C(=O)N[C@@H](CO)C(=O)O)C(C)C)[C@@H](C)CC` [AT762] (Glutaryl-GTFISDYSIAMDKIK(C16 diacid)QQDFVEWLLAQKPSSGAPPPS-OH), the Kb at human GIP receptor [1] is 0.15 nM. The “Avr lag time (h)” value in data set [2] (1 mg/ml, Phosphate (7.4)) is recorded as “fnd (Fnd = fibrils not detected within experiment time (96 hours) with agitation.)”; in data set [2] (5 mg/ml, MilliQ) it was “fnd (Fnd = fibrils not detected within experiment time (96 hours) with agitation.)”. For the same molecule, the Visual appearance entry in data set [3] (1 mg/ml, Phosphate (7.4)) is “Clear”; in data set [3] (5 mg/ml, MilliQ), “Clear”.

B1: AT364 (peptide)
peptide: EGTFISDYSIAMDKIK(C16 diacid)QQDFVNWLLAQKPSSGAPPPS-OH
modifications: N-terminus assumed
SMILES: CC[C@H](C)[C@H](NC(=O)[C@H](CO)NC(=O)[C@H](Cc1ccc(O)cc1)NC(=O)[C@H](CC(=O)O)NC(=O)[C@H](CO)NC(=O)[C@@H](NC(=O)[C@H](Cc1ccccc1)NC(=O)[C@@H](NC(=O)CNC(=O)[C@@H](N)CCC(=O)O)[C@@H](C)O)[C@@H](C)CC)C(=O)N[C@@H](C)C(=O)N[C@@H](CCSC)C(=O)N[C@@H](CC(=O)O)C(=O)N[C@@H](CCCCN)C(=O)N[C@H](C(=O)N[C@@H](CCCCNC(=O)CCCCCCCCCCCCCCC(=O)O)C(=O)N[C@@H](CCC(N)=O)C(=O)N[C@@H](CCC(N)=O)C(=O)N[C@@H](CC(=O)O)C(=O)N[C@@H](Cc1ccccc1)C(=O)N[C@H](C(=O)N[C@@H](CC(N)=O)C(=O)N[C@@H](Cc1c[nH]c2ccccc12)C(=O)N[C@@H](CC(C)C)C(=O)N[C@@H](CC(C)C)C(=O)N[C@@H](C)C(=O)N[C@@H](CCC(N)=O)C(=O)N[C@@H](CCCCN)C(=O)N1CCC[C@H]1C(=O)N[C@@H](CO)C(=O)N[C@@H](CO)C(=O)NCC(=O)N[C@@H](C)C(=O)N1CCC[C@H]1C(=O)N1CCC[C@H]1C(=O)N1CCC[C@H]1C(=O)N[C@@H](CO)C(=O)O)C(C)C)[C@@H](C)CC
Regarding B1, in the data set with human GIP receptor [4], the “cAMP antagonism nM (IC50, CisBio assay)” value worked out at 1.12 nM and the “cAMP antagonism pIC50 (CisBio assay)” value turned out to be 9. In the data set with human GIP receptor [5], the “nM (Kb, Schild analysis, cAMP)” value came to 0.77 nM and the “pKb (Schild analysis, cAMP)” value was determined as 9.1.

B2: AT158 (peptide)
peptide: EGTFISDYSIAMDKIK(C16 diacid)QQDFVNWLLAQK-NH2
modifications: N-terminus assumed
SMILES: CC[C@H](C)[C@H](NC(=O)[C@H](CO)NC(=O)[C@H](Cc1ccc(O)cc1)NC(=O)[C@H](CC(=O)O)NC(=O)[C@H](CO)NC(=O)[C@@H](NC(=O)[C@H](Cc1ccccc1)NC(=O)[C@@H](NC(=O)CNC(=O)[C@@H](N)CCC(=O)O)[C@@H](C)O)[C@@H](C)CC)C(=O)N[C@@H](C)C(=O)N[C@@H](CCSC)C(=O)N[C@@H](CC(=O)O)C(=O)N[C@@H](CCCCN)C(=O)N[C@H](C(=O)N[C@@H](CCCCNC(=O)CCCCCCCCCCCCCCC(=O)O)C(=O)N[C@@H](CCC(N)=O)C(=O)N[C@@H](CCC(N)=O)C(=O)N[C@@H](CC(=O)O)C(=O)N[C@@H](Cc1ccccc1)C(=O)N[C@H](C(=O)N[C@@H](CC(N)=O)C(=O)N[C@@H](Cc1c[nH]c2ccccc12)C(=O)N[C@@H](CC(C)C)C(=O)N[C@@H](CC(C)C)C(=O)N[C@@H](C)C(=O)N[C@@H](CCC(N)=O)C(=O)N[C@@H](CCCCN)C(N)=O)C(C)C)[C@@H](C)CC
For the molecule B2, in the data set with human GIP receptor [4], the “cAMP antagonism nM (IC50, CisBio assay)” value came to 14.3 nM and the “cAMP antagonism pIC50 (CisBio assay)” value was determined as 7.8. In addition, in the data set with human GIP receptor [5], the “nM (Kb, Schild analysis, cAMP)” value was 3.7 nM and the “pKb (Schild analysis, cAMP)” value turned out to be 8.4.
